Test results from paper PMC6895269.
pKd: −log10 of the molar value.

Legend:
[1] = test system: Rtf1 HMD74-184 (histone modification domain) (Saccharomyces cerevisiae); assay: EMSA; details: 50 mM Tris-HCl pH 7.5, 150 mM NaCl, 2 mM arginine, 0.01% CHAPS, 0.01% NP-40, 1 uM BSA, 3 nM nucleosome, 30 min on ice, 4-12% Tris-glycine native PAGE
[2] = target: wild-type X. laevis nucleosome (X. laevis); assay: native gel or EMSA; 3 nM nucleosomes with increasing recombinant HMD, 30 min on ice, 50 mM Tris-HCl pH 7.5, 150 mM NaCl, 2 mM arginine, 0.01% CHAPS, 0.01% NP-40, 1 μM BSA; 4-12% native PAGE, SYBR Green; Kd by non-linear least squares regression
[3] = target: acidic patch mutant X. laevis nucleosome (H2A E61A, E64A, D90A, E92A) (X. laevis); assay: as above

## acidic patch mutant X. laevis nucleosome (H2A E61A, E64A, D90A, E92A)
[1]; histone H2A E61A;E64A;D90A;E92A
  pKd: 6.60

## recombinant HMD_(74-184) (Rtf1 histone modification domain) (from UniProt P53064 74-184) (domain or fragment)
[2]
  pKd: 7.00
[3]
  pKd: 6.60

## wild-type X. laevis nucleosome
[1]; wild-type histone octamer
  pKd: 7.00
